The experiment deals with T1, Fc-tagged extracellular section of EGFR (rEGFR) (human, UniProt P00533 25-645).
T1 construct: EGFR, extracellular section, human-derived; Bought protein; also called rEGFR (extracellular part); recombinant extracellular domain of EGFR; source: bought: Sino Biological
In words: pull-down; 200 ng/mL rSPINK4-His and 1000 ng/mL Fc-tagged extracellular EGFR in 1 mL PBS with protease inhibitors, 4 °C overnight; anti-His or anti-EGFR magnetic beads, IgG control; Western blot. To be noted: both partners purified.

B1: human-derived recombinant SPINK4 protein, His-tagged (rSPINK4-His) (natural protein, UniProt O60575 27-86, looked up)
chain: GKLPFSRMPICEHMVESPTCSQMSNLVCGTDGLTYTNECQLCLARIKTKQDIQIMKDGKC
notes: Bought recombinant protein
For B1, the binding result is given as “binds”.

For the origin of these results see article PMC11245600, “Therapeutic potential of the secreted Kazal-type serine protease inhibitor SPINK4 in colitis” (Nature Communications, 2024).
